Assay results published in article PMC9279676, “ERK2 MAP kinase regulates SUFU binding by multisite phosphorylation of GLI1” (Life Science Alliance, 2022).
Numbering of substitutions follows the chain as printed.

Columns and labels:
[1] = biological target: T1, full-length GLI1, wild type, 35S-radiolabeled (human, UniProt P08151-1 1-1106, [35S]-methionine label); experiment: pull-down; purified GST-SUFU, 1.25-80 nM, captured on glutathione-Sepharose beads; ∼1 pmol 35S-GLI1 (1-232 or full length) in 200 μl; 15 min at 30°C, then 1 h at room temperature; Binding Buffer + 1 mg/ml BSA; bound GLI1 quantified by SDS-PAGE and Phosphorimager; Kd from binding isotherms; conditions: one partner purified
T1 construct: human GLI1, full length (1,106 residues); the plasmid used for in vitro translation of full-length GLI1 is not described; also called full-length GLI1 protein; FL-GLI1; source: in vitro transcription/translation, partially purified by ammonium sulfate precipitation
T1 sequence (looked up): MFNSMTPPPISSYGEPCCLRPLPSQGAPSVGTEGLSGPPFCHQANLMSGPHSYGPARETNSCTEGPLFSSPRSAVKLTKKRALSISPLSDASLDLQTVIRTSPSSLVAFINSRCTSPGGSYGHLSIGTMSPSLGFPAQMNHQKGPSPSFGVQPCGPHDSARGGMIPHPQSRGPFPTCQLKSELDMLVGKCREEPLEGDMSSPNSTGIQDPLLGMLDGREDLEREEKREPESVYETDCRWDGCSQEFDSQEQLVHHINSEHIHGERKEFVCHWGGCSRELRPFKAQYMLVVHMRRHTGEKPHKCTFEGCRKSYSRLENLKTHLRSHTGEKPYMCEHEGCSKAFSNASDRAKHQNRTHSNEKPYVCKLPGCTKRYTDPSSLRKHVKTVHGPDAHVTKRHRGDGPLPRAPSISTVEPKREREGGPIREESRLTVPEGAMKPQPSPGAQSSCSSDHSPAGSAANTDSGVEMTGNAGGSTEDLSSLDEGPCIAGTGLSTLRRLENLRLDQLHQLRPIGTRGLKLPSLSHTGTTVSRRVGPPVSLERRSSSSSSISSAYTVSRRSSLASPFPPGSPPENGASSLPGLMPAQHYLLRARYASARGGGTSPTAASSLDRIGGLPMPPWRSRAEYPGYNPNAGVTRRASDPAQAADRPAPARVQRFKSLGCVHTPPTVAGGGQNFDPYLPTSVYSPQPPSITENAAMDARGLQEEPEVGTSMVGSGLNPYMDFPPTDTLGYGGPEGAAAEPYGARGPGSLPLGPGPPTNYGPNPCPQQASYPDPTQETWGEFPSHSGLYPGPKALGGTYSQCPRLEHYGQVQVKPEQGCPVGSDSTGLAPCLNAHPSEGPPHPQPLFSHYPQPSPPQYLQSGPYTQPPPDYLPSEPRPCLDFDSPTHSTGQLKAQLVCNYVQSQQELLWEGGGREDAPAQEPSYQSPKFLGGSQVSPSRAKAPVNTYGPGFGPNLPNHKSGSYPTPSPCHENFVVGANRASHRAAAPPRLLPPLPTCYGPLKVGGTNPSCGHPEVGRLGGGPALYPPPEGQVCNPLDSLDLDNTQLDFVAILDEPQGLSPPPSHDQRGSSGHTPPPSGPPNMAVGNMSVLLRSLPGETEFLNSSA

[2] = biological target: T2, full-length GLI1 S102E S116E S130E, 35S-radiolabeled (human, UniProt P08151-1 1-1106, S102E | S116E | S130E, [35S]-methionine label); experiment: as above; conditions: one partner purified
T2 construct: human GLI1, full length (1,106 residues); also called FL-GLI1^EEE; GLI1^EEE; source: in vitro transcription/translation, partially purified by ammonium sulfate precipitation
T2 sequence (looked up): T1 sequence (looked up) with S102E, S116E, S130E

B1: GST-SUFU (fusion of GST to full-length human SUFU) (natural protein, UniProt Q9UMX1-1 1-484, looked up)
chain: MAELRPSGAPGPTAPPAPGPTAPPAFASLFPPGLHAIYGECRRLYPDQPNPLQVTAIVKYWLGGPDPLDYVSMYRNVGSPSANIPEHWHYISFGLSDLYGDNRVHEFTGTDGPSGFGFELTFRLKRETGESAPPTWPAELMQGLARYVFQSENTFCSGDHVSWHSPLDNSESRIQHMLLTEDPQMQPVQTPFGVVTFLQIVGVCTEELHSAQQWNGQGILELLRTVPIAGGPWLITDMRRGETIFEIDPHLQERVDKGIETDGSNLSGVSAKCAWDDLSRPPEDDEDSRSICIGTQPRRLSGKDTEQIRETLRRGLEINSKPVLPPINPQRQNGLAHDRAPSRKDSLESDSSTAIIPHELIRTRQLESVHLKFNQESGALIPLCLRGRLLHGRHFTYKSITGDMAITFVSTGVEGAFATEEHPYAAHGPWLQILLTEEFVEKMLEDLEDLTSPEEFKLPKEYSWPEKKLKVSILPDVVFDSPLH
notes: human SUFU, full length (residues 1-484), BamHI-SUFU-SalI cassette in pGEX-LB; pGEX-LB carries a Gly-Gly-Gly-Gly-Gly-Ser-Gly stretch between GST and the fused protein; also called full-length GST-SUFU; source: Escherichia coli, purified (glutathione-Sepharose); not shown: GST, N-terminal, kept
[1]
  Kd: 14 ± 4 nM
[2]
  Kd: 42 ± 8 nM
